Results published in patent publication US20180334702A1 (SYSMEX, published 2018).
No end group written: not given here. *: point of attachment. aminohexane = linker joining biotin to the N-terminal residue; Biotin = O=C1N[C@H]2[C@H](CS[C@H]2CCCCC(=O)*)N1

molecular target: T1, CDK2/cyclin E1 (UniProt P24941 1-298; P24864 1-410); experiment: cell-based or functional assay

Binder	relative luminescence intensity (CDK6 = 100%) [%]
{Biotin-aminohexane}-PYKISEGLPTPAKMAPRSRI-NH2 [Comparative Polypeptide 4]	2680
{Biotin-aminohexane}-RRRFRPASPLRGPPK [Comparative Polypeptide 2]	198
{Biotin-aminohexane}-PYKISEGLPTPTKMTPRSRI-NH2 [Comparative Polypeptide 3]	766

molecular target: T2, CDK4/cyclin D3 (UniProt P11802 1-303; P30281 1-292); experiment: cell-based or functional assay
T2 sequence (P11802 whole entry, chain 1 of 2): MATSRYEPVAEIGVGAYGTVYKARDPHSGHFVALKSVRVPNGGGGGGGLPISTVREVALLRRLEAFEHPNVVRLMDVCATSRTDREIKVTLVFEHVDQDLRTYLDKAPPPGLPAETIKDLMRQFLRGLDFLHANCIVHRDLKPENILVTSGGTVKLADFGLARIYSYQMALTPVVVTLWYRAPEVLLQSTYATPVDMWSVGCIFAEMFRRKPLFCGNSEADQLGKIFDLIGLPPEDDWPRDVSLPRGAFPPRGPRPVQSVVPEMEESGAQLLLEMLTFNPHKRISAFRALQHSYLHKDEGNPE
T2 sequence (P30281 whole entry, chain 2 of 2): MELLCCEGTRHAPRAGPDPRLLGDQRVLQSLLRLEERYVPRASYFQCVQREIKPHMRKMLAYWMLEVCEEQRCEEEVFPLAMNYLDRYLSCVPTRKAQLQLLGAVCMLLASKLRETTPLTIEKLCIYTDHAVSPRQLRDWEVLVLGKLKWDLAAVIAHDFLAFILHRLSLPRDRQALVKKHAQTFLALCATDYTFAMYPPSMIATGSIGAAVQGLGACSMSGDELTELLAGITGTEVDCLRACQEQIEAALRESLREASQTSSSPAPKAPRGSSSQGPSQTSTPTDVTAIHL

Binder	relative luminescence intensity (CDK6 = 100%) [%]
{Biotin-aminohexane}-RRRFRPASPLRGPPK [Comparative Polypeptide 2]	51
{Biotin-aminohexane}-PYKISEGLPTPTKMTPRSRI-NH2 [Comparative Polypeptide 3]	7

molecular target: T3, CDK1/cyclin A2 (UniProt P06493 1-297; P20248 1-432, limits assumed); experiment: cell-based or functional assay
T3 sequence (P06493 whole entry, chain 1 of 2): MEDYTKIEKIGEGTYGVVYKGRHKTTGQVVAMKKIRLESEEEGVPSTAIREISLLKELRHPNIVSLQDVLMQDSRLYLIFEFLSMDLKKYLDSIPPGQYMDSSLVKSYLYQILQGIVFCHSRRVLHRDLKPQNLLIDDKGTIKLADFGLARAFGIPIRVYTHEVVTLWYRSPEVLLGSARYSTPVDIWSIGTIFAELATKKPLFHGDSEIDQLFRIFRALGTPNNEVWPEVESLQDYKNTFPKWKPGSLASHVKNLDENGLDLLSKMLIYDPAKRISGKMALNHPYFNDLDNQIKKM
T3 sequence (P20248 whole entry, chain 2 of 2): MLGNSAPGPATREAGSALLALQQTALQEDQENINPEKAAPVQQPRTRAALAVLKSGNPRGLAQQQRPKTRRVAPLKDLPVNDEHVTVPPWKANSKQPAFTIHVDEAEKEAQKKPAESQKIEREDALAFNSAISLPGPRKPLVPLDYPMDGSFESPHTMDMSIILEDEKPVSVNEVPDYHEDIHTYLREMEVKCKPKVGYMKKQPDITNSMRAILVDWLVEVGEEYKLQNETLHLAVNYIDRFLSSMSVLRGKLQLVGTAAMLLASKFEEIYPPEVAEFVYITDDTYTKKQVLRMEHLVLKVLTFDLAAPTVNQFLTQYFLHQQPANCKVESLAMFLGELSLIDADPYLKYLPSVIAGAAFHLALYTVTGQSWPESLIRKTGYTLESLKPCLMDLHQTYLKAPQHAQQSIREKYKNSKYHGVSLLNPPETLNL

Binder	relative luminescence intensity (CDK6 = 100%) [%]
{Biotin-aminohexane}-PYKISEGLPTPAKMAPRSRI-NH2 [Comparative Polypeptide 4]	3250
{Biotin-aminohexane}-RRRFRPASPLRGPPK [Comparative Polypeptide 2]	606
{Biotin-aminohexane}-PYKISEGLPTPTKMTPRSRI-NH2 [Comparative Polypeptide 3]	678

molecular target: T1, CDK2/cyclin E1; experiment: cell-based or functional assay; remark: another data set of the same source

Binder	relative reactivity (Polypeptide 3 = 100%) [%]
{Biotin-aminohexane}-GAPWSPNPWWRGGGG [Polypeptide 3]	100
{Biotin-aminohexane}-GAPWSPNDWWDGGGG [Polypeptide 27]	20
{Biotin-aminohexane}-GAPWSPDPWDDGGGG [Polypeptide 28]	13

molecular target: T2, CDK4/cyclin D3; experiment: cell-based or functional assay; remark: another data set of the same source

Binder	relative reactivity (Polypeptide 3 = 100%) [%]
{Biotin-aminohexane}-GAPWSPNPWWRGGGG [Polypeptide 3]	100
{Biotin-aminohexane}-GAPWSPNDWWDGGGG [Polypeptide 27]	37
{Biotin-aminohexane}-GAPWSPDPWDDGGGG [Polypeptide 28]	50

molecular target: T4, CDK6/cyclin D3 (UniProt Q00534 1-326; P30281 1-292); experiment: cell-based or functional assay
T4 sequence (Q00534 whole entry, chain 1 of 2): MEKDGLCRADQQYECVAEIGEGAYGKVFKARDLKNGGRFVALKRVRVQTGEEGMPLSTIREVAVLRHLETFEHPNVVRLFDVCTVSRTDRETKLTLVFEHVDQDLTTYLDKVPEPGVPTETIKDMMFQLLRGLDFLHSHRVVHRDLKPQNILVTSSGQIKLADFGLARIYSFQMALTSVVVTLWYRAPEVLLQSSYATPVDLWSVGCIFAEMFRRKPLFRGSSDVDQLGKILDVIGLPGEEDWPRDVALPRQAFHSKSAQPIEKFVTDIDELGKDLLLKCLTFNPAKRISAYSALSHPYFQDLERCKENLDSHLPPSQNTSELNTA
T4 sequence (P30281 whole entry, chain 2 of 2): as the sequence (P30281 whole entry, chain 2 of 2) above

Binder	relative reactivity (Polypeptide 3 = 100%) [%]
{Biotin-aminohexane}-GAPWSPNPWWRGGGG [Polypeptide 3]	100
{Biotin-aminohexane}-GAPWSPNDWWDGGGG [Polypeptide 27]	33
{Biotin-aminohexane}-GAPWSPDPWDDGGGG [Polypeptide 28]	25

molecular target: T3, CDK1/cyclin A2; experiment: cell-based or functional assay; remark: another data set of the same source

Binder	relative reactivity (Polypeptide 3 = 100%) [%]
{Biotin-aminohexane}-GAPWSPNPWWRGGGG [Polypeptide 3]	100
{Biotin-aminohexane}-GAPWSPNDWWDGGGG [Polypeptide 27]	13
{Biotin-aminohexane}-GAPWSPDPWDDGGGG [Polypeptide 28]	4

molecular target: T1, CDK2/cyclin E1; experiment: cell-based or functional assay; remark: another data set of the same source

Binder	relative luminescence intensity (CDK6 = 100%) [%]
{Biotin-aminohexane}-GGGRAAPLSPIPHIPR [Comparative Polypeptide 6]	44
{Biotin-aminohexane}-LVEMTGLSPRVIRVW [Comparative Polypeptide 7]	10
{Biotin-aminohexane}-RRRFRPASPLRGPPK [Comparative Polypeptide 2]	321
{Biotin-aminohexane}-GGGRAAPLSPIDHIPD [Polypeptide 25]	62
{Biotin-aminohexane}-GGGKAPLTPKKAK [Comparative Polypeptide 5]	156
{Biotin-aminohexane}-GGGKAPLTPKDAD [Polypeptide 22]	15
{Biotin-aminohexane}-GGGRAAPLSPDPHIPD [Polypeptide 24]	54

molecular target: T2, CDK4/cyclin D3; experiment: cell-based or functional assay; remark: another data set of the same source

Binder	relative luminescence intensity (CDK6 = 100%) [%]
{Biotin-aminohexane}-GGGRAAPLSPIPHIPR [Comparative Polypeptide 6]	190
{Biotin-aminohexane}-LVEMTGLSPRVIRVW [Comparative Polypeptide 7]	55
{Biotin-aminohexane}-LVEMTGLSPRDIRVD [Polypeptide 26]	18
{Biotin-aminohexane}-RRRFRPASPLRGPPK [Comparative Polypeptide 2]	245
{Biotin-aminohexane}-GGGRAAPLSPIDHIPD [Polypeptide 25]	40
{Biotin-aminohexane}-GGGKAPLTPKKAK [Comparative Polypeptide 5]	56
{Biotin-aminohexane}-GGGKAPLTPKDAD [Polypeptide 22]	46
{Biotin-aminohexane}-GGGRAAPLSPDPHIPD [Polypeptide 24]	54
{Biotin-aminohexane}-RRRFRPASPLDGPPD [Polypeptide 18]	14
{Biotin-aminohexane}-GGGKAPLTPLDAD [Polypeptide 23]	37

molecular target: T3, CDK1/cyclin A2; experiment: cell-based or functional assay; remark: another data set of the same source

Binder	relative luminescence intensity (CDK6 = 100%) [%]
{Biotin-aminohexane}-GGGRAAPLSPIPHIPR [Comparative Polypeptide 6]	119
{Biotin-aminohexane}-LVEMTGLSPRVIRVW [Comparative Polypeptide 7]	1150
{Biotin-aminohexane}-LVEMTGLSPRDIRVD [Polypeptide 26]	295
{Biotin-aminohexane}-RRRFRPASPLRGPPK [Comparative Polypeptide 2]	318
{Biotin-aminohexane}-GGGKAPLTPKKAK [Comparative Polypeptide 5]	143
{Biotin-aminohexane}-GGGKAPLTPKDAD [Polypeptide 22]	27
{Biotin-aminohexane}-RRRFRPASPLDGPPD [Polypeptide 18]	22

molecular target: T1, CDK2/cyclin E1; experiment: cell-based or functional assay; remark: another data set of the same source

Binder	relative value of the luminescence intensity (Comparative Polypeptide 2 = 1.00) [relative value]
{Biotin-aminohexane}-PYKISEGLPTPTKMTPRSRI [Comparative Polypeptide 1]	6.44
{Biotin-aminohexane}-RRRFRPASPLRGPPK [Comparative Polypeptide 2]	1
{Biotin-aminohexane}-GMPWSPNPWWRGGGG [Polypeptide 1]	6.12

molecular target: T2, CDK4/cyclin D3; experiment: cell-based or functional assay; remark: another data set of the same source

Binder	relative value of the luminescence intensity (Comparative Polypeptide 2 = 1.00) [relative value]
{Biotin-aminohexane}-PYKISEGLPTPTKMTPRSRI [Comparative Polypeptide 1]	0.15
{Biotin-aminohexane}-RRRFRPASPLRGPPK [Comparative Polypeptide 2]	1
{Biotin-aminohexane}-GMPWSPNPWWRGGGG [Polypeptide 1]	18.6

molecular target: T4, CDK6/cyclin D3; experiment: cell-based or functional assay; remark: another data set of the same source

Binder	relative value of the luminescence intensity (Comparative Polypeptide 2 = 1.00) [relative value]
{Biotin-aminohexane}-PYKISEGLPTPTKMTPRSRI [Comparative Polypeptide 1]	0.43
{Biotin-aminohexane}-RRRFRPASPLRGPPK [Comparative Polypeptide 2]	1
{Biotin-aminohexane}-GMPWSPNPWWRGGGG [Polypeptide 1]	7.06

molecular target: T3, CDK1/cyclin A2; experiment: cell-based or functional assay; remark: another data set of the same source

Binder	relative value of the luminescence intensity (Comparative Polypeptide 2 = 1.00) [relative value]
{Biotin-aminohexane}-PYKISEGLPTPTKMTPRSRI [Comparative Polypeptide 1]	1.63
{Biotin-aminohexane}-RRRFRPASPLRGPPK [Comparative Polypeptide 2]	1
{Biotin-aminohexane}-GMPWSPNPWWRGGGG [Polypeptide 1]	2.24

molecular target: T1, CDK2/cyclin E1; experiment: cell-based or functional assay; remark: another data set of the same source

Binder	Luminescence intensity
{Biotin-aminohexane}-PYKISEGLPTPTKMTPRSRI [Comparative Polypeptide 1]	1.04e+08
{Biotin-aminohexane}-RRRFRPASPLRGPPK [Comparative Polypeptide 2]	1.62e+07
{Biotin-aminohexane}-GMPWSPNPWWRGGGG [Polypeptide 1]	9.92e+07

molecular target: T2, CDK4/cyclin D3; experiment: cell-based or functional assay; remark: another data set of the same source

Binder	Luminescence intensity
{Biotin-aminohexane}-PYKISEGLPTPTKMTPRSRI [Comparative Polypeptide 1]	811000
{Biotin-aminohexane}-RRRFRPASPLRGPPK [Comparative Polypeptide 2]	5.44e+06
{Biotin-aminohexane}-GMPWSPNPWWRGGGG [Polypeptide 1]	1.01e+08

molecular target: T4, CDK6/cyclin D3; experiment: cell-based or functional assay; remark: another data set of the same source

Binder	Luminescence intensity
{Biotin-aminohexane}-PYKISEGLPTPTKMTPRSRI [Comparative Polypeptide 1]	7.42e+06
{Biotin-aminohexane}-RRRFRPASPLRGPPK [Comparative Polypeptide 2]	1.73e+07
{Biotin-aminohexane}-GMPWSPNPWWRGGGG [Polypeptide 1]	1.22e+08

molecular target: T3, CDK1/cyclin A2; experiment: cell-based or functional assay; remark: another data set of the same source

Binder	Luminescence intensity
{Biotin-aminohexane}-PYKISEGLPTPTKMTPRSRI [Comparative Polypeptide 1]	6.76e+07
{Biotin-aminohexane}-RRRFRPASPLRGPPK [Comparative Polypeptide 2]	4.15e+07
{Biotin-aminohexane}-GMPWSPNPWWRGGGG [Polypeptide 1]	9.32e+07
